The target in test [1] is T1, mouse LEP-R extracellular domain (mLEP-RECD) (mouse, UniProt P48356 22-839).
T1 sequence (looked up): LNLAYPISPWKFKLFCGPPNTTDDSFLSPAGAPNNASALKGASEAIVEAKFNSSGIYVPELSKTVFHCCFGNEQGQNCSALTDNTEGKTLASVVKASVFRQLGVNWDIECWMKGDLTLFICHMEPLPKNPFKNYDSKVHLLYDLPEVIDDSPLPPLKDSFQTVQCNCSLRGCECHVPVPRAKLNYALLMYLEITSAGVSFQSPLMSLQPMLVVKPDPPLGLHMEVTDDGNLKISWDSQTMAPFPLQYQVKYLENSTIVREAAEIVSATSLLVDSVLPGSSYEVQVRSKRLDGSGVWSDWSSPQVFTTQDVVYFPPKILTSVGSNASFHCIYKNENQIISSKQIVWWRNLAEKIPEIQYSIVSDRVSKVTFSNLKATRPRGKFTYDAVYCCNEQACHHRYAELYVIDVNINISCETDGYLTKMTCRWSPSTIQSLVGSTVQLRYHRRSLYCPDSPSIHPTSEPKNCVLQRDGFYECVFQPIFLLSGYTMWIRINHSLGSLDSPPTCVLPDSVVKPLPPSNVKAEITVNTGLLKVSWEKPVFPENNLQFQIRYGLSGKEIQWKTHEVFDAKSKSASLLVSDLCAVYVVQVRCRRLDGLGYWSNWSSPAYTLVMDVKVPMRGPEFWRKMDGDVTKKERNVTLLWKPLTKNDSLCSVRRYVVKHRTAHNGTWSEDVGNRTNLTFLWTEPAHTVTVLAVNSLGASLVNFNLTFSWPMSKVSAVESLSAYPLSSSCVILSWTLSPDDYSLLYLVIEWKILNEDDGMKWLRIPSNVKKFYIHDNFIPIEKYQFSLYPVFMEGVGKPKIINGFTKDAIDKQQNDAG
In words: SEC-MALLS.

The target in test [2] is T1, mouse LEP-R extracellular domain …. Nature of the test: SEC-MALLS + AUC.
Test [3] has as its target T2, mouse LEP-R Ig-CRH2 fragment, residues 328-633, C602S (mouse, UniProt P48356 328-633, C602S).
T2 sequence (looked up): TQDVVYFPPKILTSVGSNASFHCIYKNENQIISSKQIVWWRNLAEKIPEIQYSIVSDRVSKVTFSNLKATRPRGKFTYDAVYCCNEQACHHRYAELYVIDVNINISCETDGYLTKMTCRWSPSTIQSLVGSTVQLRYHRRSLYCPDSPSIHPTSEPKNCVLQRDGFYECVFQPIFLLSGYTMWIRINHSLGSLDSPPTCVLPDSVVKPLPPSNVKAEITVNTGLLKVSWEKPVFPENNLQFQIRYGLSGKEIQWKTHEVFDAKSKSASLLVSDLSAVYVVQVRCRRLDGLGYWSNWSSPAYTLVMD
Nature of the test: SEC-MALLS.

Test [4] has as its target T3, human LEP-R extracellular domain (hLEP-RECD), glycosylated (human, UniProt P48357 22-839).
T3 sequence (looked up): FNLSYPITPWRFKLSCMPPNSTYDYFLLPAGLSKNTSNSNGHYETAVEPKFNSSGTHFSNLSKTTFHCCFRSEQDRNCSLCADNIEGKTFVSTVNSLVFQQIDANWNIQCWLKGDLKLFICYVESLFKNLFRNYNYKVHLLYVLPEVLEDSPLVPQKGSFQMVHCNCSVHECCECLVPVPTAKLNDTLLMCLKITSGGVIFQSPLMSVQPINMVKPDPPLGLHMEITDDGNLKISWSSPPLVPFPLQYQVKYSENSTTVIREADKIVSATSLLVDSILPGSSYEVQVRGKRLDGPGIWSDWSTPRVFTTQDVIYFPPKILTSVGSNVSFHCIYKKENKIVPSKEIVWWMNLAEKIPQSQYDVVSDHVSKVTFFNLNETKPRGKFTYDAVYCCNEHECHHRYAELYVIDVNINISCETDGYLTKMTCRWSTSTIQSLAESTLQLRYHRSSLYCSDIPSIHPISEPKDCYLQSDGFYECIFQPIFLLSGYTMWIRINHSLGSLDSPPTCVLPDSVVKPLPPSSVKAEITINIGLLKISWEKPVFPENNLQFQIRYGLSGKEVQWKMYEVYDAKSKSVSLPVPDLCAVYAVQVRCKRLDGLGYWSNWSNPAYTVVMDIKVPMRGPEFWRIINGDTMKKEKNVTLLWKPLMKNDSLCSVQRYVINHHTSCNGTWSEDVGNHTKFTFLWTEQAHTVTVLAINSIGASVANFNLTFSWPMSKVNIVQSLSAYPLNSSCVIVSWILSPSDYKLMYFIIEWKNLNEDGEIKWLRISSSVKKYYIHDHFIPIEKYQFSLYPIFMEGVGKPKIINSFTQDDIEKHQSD
Nature of the test: SEC-MALLS.

Test [5] concerns the target T1, mouse LEP-R extracellular domain …. In words: BLI.
The target is the same in test [6]. Nature of the test: cryo-EM structure.
The target of test [7] is T2, mouse LEP-R Ig-CRH2 fragment, residues …. Nature of the test: crystal structure.

From paper doi:10.1101/2022.12.01.518327 (bioRxiv, 2022) come the findings set out here.

B1: murinized human Leptin I85V/M89L/G132D/G139L (ligand, UniProt P41159 22-167, looked up)
chain: VPIQKVQDDTKTLIKTIVTRINDISHTQSVSSKQKVTGLDFIPGLHPILTLSKMDQTLAVYQQVLTSLPSRNVIQISNDLENLRDLLHVLAFSKSCHLPWASGLETLDSLDGVLEASLYSTEVVALSRLQGSLQDMLWQLDLSPGC
With B1, the binding result in test [1] is given as “binds”.

B2: mouse Leptin (mLeptin), wild type, as used in SEC-MALLS, AUC, BLI (in solution) and on cells (ligand, UniProt P41160 22-167, looked up)
chain: VPIQKVQDDTKTLIKTIVTRINDISHTQSVSAKQRVTGLDFIPGLHPILSLSKMDQTLAVYQQVLTSLPSQNVLQIANDLENLRDLLHLLAFSKSCSLPQTSGLQKPESLDGVLEASLYSTEVVALSRLQGSLQDILQQLDVSPEC
On to B2, for which the binding result in test [2], in test [3] and in test [4] was “binds” in each case.

B3: in vitro biotinylated mouse Leptin (ligand, UniProt P41160 22-167, looked up)
chain: VPIQKVQDDTKTLIKTIVTRINDISHTQSVSAKQRVTGLDFIPGLHPILSLSKMDQTLAVYQQVLTSLPSQNVLQIANDLENLRDLLHLLAFSKSCSLPQTSGLQKPESLDGVLEASLYSTEVVALSRLQGSLQDILQQLDVSPEC
modifications: biotin (NHS-PEG4-biotin, in vitro)
Consider B3, for which the binding result in test [5] is “binds”.

B4: mouse Leptin refolded from E. coli, N-terminal His-tag removed with TEV protease (ligand, UniProt P41160 22-167, looked up)
chain: VPIQKVQDDTKTLIKTIVTRINDISHTQSVSAKQRVTGLDFIPGLHPILSLSKMDQTLAVYQQVLTSLPSQNVLQIANDLENLRDLLHLLAFSKSCSLPQTSGLQKPESLDGVLEASLYSTEVVALSRLQGSLQDILQQLDVSPEC
As to B4, the binding result in test [6] was “binds”.

B5: tag-less mouse Leptin refolded from E. coli inclusion bodies (ligand, UniProt P41160 22-167, looked up)
chain: VPIQKVQDDTKTLIKTIVTRINDISHTQSVSAKQRVTGLDFIPGLHPILSLSKMDQTLAVYQQVLTSLPSQNVLQIANDLENLRDLLHLLAFSKSCSLPQTSGLQKPESLDGVLEASLYSTEVVALSRLQGSLQDILQQLDVSPEC
Take B5: in test [7], the binding result is recorded as “binds”.

B6: mouse Leptin a2 antagonist (60LDFI63/AAAA) (ligand, UniProt P41160 22-167, looked up)
chain: VPIQKVQDDTKTLIKTIVTRINDISHTQSVSAKQRVTGAAAAPGLHPILSLSKMDQTLAVYQQVLTSLPSQNVLQIANDLENLRDLLHLLAFSKSCSLPQTSGLQKPESLDGVLEASLYSTEVVALSRLQGSLQDILQQLDVSPEC
As usually defined, the stoichiometry N is a count of units in the complex or per binding partner. B6: the “stoichiometry N” value in test [2] worked out at 1.

B7: Leptin a1 antagonist (141ST142/AA), as used with mLEP-RECD (ligand, UniProt P41160 22-167, looked up)
chain: VPIQKVQDDTKTLIKTIVTRINDISHTQSVSAKQRVTGLDFIPGLHPILSLSKMDQTLAVYQQVLTSLPSQNVLQIANDLENLRDLLHLLAFSKSCSLPQTSGLQKPESLDGVLEASLYAAEVVALSRLQGSLQDILQQLDVSPEC
Turning to B7, the “stoichiometry N” value in test [2] stood at 1.
